Consider one substance from patent publication US20240141007A1.

pKd: −log10 of the molar value.

This experiment addresses human FcRn (human) (UniProt P55899). Briefly: SPR, hFcRn as ligand.

Chain of human FcRn (human) (P55899 24-297 limits assumed, chain 1 of 2): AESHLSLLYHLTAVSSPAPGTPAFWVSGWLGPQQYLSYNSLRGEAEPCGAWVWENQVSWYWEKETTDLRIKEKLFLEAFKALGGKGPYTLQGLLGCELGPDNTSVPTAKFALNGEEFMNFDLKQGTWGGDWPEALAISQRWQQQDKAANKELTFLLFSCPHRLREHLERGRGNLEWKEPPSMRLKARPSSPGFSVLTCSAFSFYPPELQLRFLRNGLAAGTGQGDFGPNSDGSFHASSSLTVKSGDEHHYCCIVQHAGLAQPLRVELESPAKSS
Chain of human FcRn (human) (P61769 21-119 limits assumed, chain 2 of 2, further chain): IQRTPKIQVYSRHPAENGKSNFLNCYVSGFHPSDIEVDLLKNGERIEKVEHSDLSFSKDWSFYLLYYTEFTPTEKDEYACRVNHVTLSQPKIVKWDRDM

In turn, Ipilimumab (antibody) had a pKd of 6.29.
